Consider one substance from publication PMC12236258.

This experiment has as its target SpyCatcher003-A49C labelled with Alexa 555 maleimide. Put plainly: FRET or BRET; inline mixing cell, SpyTag003-sfGFP (donor) and SpyCatcher003-AF555 (acceptor) each at 10 uM, equimolar, delays 0.02-10 s, emission at 515 nm, double exponential fit; observed rates at one concentration.

As to SpyTag003-sfGFP, the fast rate of the double exponential FRET decay (observed, 10 uM each) was found to be 143 s⁻¹; the percent reduction of the donor fluorescence by FRET (20 ms to 10 s after mixing) is > 50%; the slow rate of the double exponential FRET decay (observed, 10 uM each) is 7 s⁻¹.
